Reference: patent US20090304687A1, “METHODS OF USING CD40 BINDING AGENTS” (Seattle Genetics , Inc., priority 2005, published 2009)
Substitutions are numbered along the chain they refer to. In names and notes the source's numbering stands. Several values for one entry are separate records, joined by “and”; a condition that tells them apart may be missing. Equal entries are not always repeated. Entries after “also recorded” stand apart in the source; their conditions may differ. Where two headings read alike, the source gives them in different places. Blank lines part the entries; values can stand above or below the molecule they belong to.

Experiments:
[1] = system: Ramos cells; assay: In vitro drug combinations with SGN-40, 3H-thymidine proliferation, Combination Index; format: cell-based; conditions: for Combination Index at ED50 / Combination Index at ED75 / Combination Index at ED90: drug with cross-linked SGN-40 (30.0-0.0586 ng/ml), Ramos cells 2% FBS, 72 hours
Method: Cells were treated for 72 hours, then labeled with ^3H-thymidine for 4 hours to measure proliferation rates. Dose response curves of drugs alone and in combination with the humanized CD40 antibody were reduced in Excel, and Combination Indices (CI) determined using the Calcusyn analysis package (Biosoft). […] CI values equal to 1.0 indicate an additive integration. For these studies, n=3 unless otherwise indicated.

[2] = target: CD40 immobilized on microassay plates (UniProt P25942 21-193, limits assumed); assay: serially diluted antibody on CD40 immobilized on microassay plates
Method: (§1) Antibodies constructed using these variant light and heavy chain variable domains were analyzed for binding activity. Each antibody was diluted to equivalent concentrations, and then serially diluted. The diluted antibodies were assayed for binding to CD40 immobilized on microassay plates.

[3] = target: CD40 (Homo sapiens, UniProt P25942); assay: Binding of variant antibodies to CD40 immobilized on microassay plates; design: Binding Data 1 / Binding Data 2 / Binding Data 3: unit not given here; conditions: for binding activity compared with the parent murine antibody: in words; for Binding Data 2 / Binding Data 1: affinity binding data, serially diluted antibody on immobilized CD40
Method: as §1, with “plates. Affinity binding data for the variant antibodies are shown below in Table 3.” for “plates.”

[4] = drug with cross-linked SGN-40, Ramos cells

Sequence of CD40 (P25942 21-277): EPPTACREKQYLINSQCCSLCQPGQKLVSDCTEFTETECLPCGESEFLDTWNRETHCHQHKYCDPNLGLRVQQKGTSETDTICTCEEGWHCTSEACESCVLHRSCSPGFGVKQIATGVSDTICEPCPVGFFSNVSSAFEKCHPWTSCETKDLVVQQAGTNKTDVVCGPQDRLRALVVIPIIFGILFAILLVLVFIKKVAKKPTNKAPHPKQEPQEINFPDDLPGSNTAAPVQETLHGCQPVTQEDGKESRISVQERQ
Sequence of CD40 immobilized on microassay plates (P25942 21-193 limits assumed): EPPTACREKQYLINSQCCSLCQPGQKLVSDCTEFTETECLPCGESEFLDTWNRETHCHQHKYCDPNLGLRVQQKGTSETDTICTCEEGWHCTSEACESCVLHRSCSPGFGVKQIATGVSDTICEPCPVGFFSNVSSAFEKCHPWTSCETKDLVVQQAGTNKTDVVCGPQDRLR

Molecule: Nc1ccn([C@@H]2O[C@H](CO)[C@@H](O)[C@@H]2O)c(=O)n1 [Ara-C]
- Combination Index at ED50 [1]: 0.95
- Combination Index at ED75 [1]: 0.90
- Combination Index at ED90 [1]: 0.90
- Effect (of combination with SGN-40) [1, 4]: Additive

Molecule: Bleomycin
- Effect (of combination with SGN-40) [1]: Synergistic

Molecule: TNFα
- Combination Index at ED50 [1]: 0.70
- Combination Index at ED75 [1]: 0.61
- Combination Index at ED90 [1]: 0.60
- Effect (of combination with SGN-40) [1, 4]: Synergistic

Molecule: N.N.[Cl][Pt][Cl] [Cisplatin]
- Combination Index at ED50 [1]: 1.04
- Combination Index at ED75 [1]: 0.89
- Combination Index at ED90 [1]: 0.78
- Effect (of combination with SGN-40) [1, 4]: Additive → Syn.
- Effect (of combination with SGN-40) ([1]; drug with cross-linked SGN-40, Ramos cells, listed as cisplatin): additive

Molecule: N[C@@H](Cc1ccc(N(CCCl)CCCl)cc1)C(=O)O [Melphalan]
- Effect (of combination with SGN-40) [1, 4]: Additive
- Effect (of combination with SGN-40) ([1]; drug with cross-linked SGN-40, Ramos cells, listed as melphalan): additive

Molecule: O=C1c2c(O)ccc(O)c2C(=O)c2c(NCCNCCO)ccc(NCCNCCO)c21 [Mitoxantrone]
- Effect (of combination with SGN-40) [1, 4]: Syn. → Add.
- Effect (of combination with SGN-40) ([1]; drug with cross-linked SGN-40, Ramos cells, listed as mitoxantrone): additive

Molecule: COc1cc([C@@H]2c3cc4c(cc3[C@@H](O[C@@H]3O[C@@H]5CO[C@@H](C)O[C@H]5[C@H](O)[C@H]3O)[C@H]3COC(=O)[C@H]23)OCO4)cc(OC)c1O [Etoposide]
- Effect (of combination with SGN-40) [1, 4]: Antagonistic. → Add.

- Binding Data 1 [2]: 23.6
- Binding Data 2 [2]: 19.3
B1: hu sgn-1 (antibody, V domains shown)
VH: EVQLVESGGGLVQPGGSLRLSCAASGYSFTGYYIHWVRQAPGKGLEWVARVIPNNGGTSYNQKFKGRFTISVDNSKNTLYLQMNSLRAEDTAVYYCAREGIYWWGQGTLVTVS
VL: DIQMTQSPSSLSASVGDRVTITCRSSQSLVHSNGNTFLHWYQQKPGKAPKLLIYTVSNRFSGVPSRFSGSGSGTDFTLTISSLQPEDFATYYCSQTTHVPWTFGQGTKVEIKR

B2: hu sgn-19: humanized CD40 antibody variant, heavy SEQ ID NO: 7, light SEQ ID NO: 16 (Y92F) (antibody, V domains shown)
VH: B1 VH with I70L, L79A
VL: B1 VL with Y92F
- binding activity compared with the parent murine antibody [3]: approaching that of the parent murine antibody

- Binding Data 2 [3]: 1.82 and 1.83
B3: hu sgn-16: humanized CD40 antibody variant, heavy SEQ ID NO: 9 (F68A I69L R72V), light SEQ ID NO: 14 (antibody, V domains shown)
VH: B1 VH with F68A, I70L
VL: B1 VL

- Binding Data 1 [3]: 1/11 and 0.86 and 0.77
- Binding Data 2 [3]: 0.69 and 0.77
B4: hu sgn-14: humanized CD40 antibody variant, heavy SEQ ID NO: 7 (I70L R72V L79A), light SEQ ID NO: 14 (antibody, V domains shown)
VH: B1 VH with I70L, L79A
VL: B1 VL

- Binding Data 2 [2]: 2.71
B5: hu sgn-15 (antibody, V domains shown)
VH: B1 VH with F68A, L79A
VL: B1 VL

- Binding Data 1 [3]: 0.96 and 0.67
- Binding Data 2 [2]: 1.03
B6: hu sgn-18 (antibody, V domains shown)
VH: B1 VH with F68A, I70L, L79A
VL: B1 VL with Y92F
- binding activity compared with the parent murine antibody [3]: approaching that of the parent murine antibody; also recorded: more closely approaching that of the parent murine antibody

- Binding Data 2 [2]: 2.46
B7: hu sgn-4 (antibody, V domains shown)
VH: B1 VH with F68A, I70L, L79A
VL: B1 VL

- Binding Data 1 [2]: 471
- Binding Data 2 [2]: 371
B8: hu sgn-2 (antibody, V domains shown)
VH: B1 VH with V72R, N74K
VL: B1 VL

- Binding Data 1 [3]: 1.02 and 1.06
- Binding Data 2 [2]: 0.92
B9: hu sgn-26 (antibody, V domains shown)
VH: B1 VH with N55A, I70L, L79A
VL: B1 VL with Y92F
- binding activity compared with the parent murine antibody [3]: approaching that of the parent murine antibody; also recorded: more closely approaching that of the parent murine antibody; also recorded: best performance

- Binding Data 2 [2]: 0.9
B10: hu sgn-23 (antibody, V domains shown)
VH: B1 VH with N55Q, I70L, L79A
VL: B1 VL
- binding activity compared with the parent murine antibody [3]: approaching that of the parent murine antibody

- Binding Data 1 [3]: 1.04 and 1.03 and 0.94 and 0.83
- Binding Data 2 [2]: 1.4
B11: hu sgn-27 (antibody, V domains shown)
VH: B1 VH with N55Q, I70L, L79A
VL: B1 VL with Y92F
- binding activity compared with the parent murine antibody [3]: approaching that of the parent murine antibody; also recorded: more closely approaching that of the parent murine antibody

- Binding Data 2 [2]: 3.56
B12: hu sgn-17 (antibody, V domains shown)
VH: B1 VH with F68A, I70L, L79A
VL: B1 VL with I2V, M4V

- Binding Data 1 [3]: 1.44 and 1.41 and 1.80 and 0.93
- Binding Data 2 [2]: 0.84
B13: hu sgn-22 (antibody, V domains shown)
VH: B1 VH with N55A, I70L, L79A
VL: B1 VL
- binding activity compared with the parent murine antibody [3]: approaching that of the parent murine antibody

- Binding Data 1 [2]: 1
- Binding Data 2 [2]: 1.33
B14: SGN-14 (parent murine antibody, donor) (antibody, V domains shown)
VH: EVQLQQSGPDLVKPGASVKISCKASGYSFTGYYIHWVKQSHGKSLEWIGRVIPNNGGTSYNQKFKGKAILTVDKSSSTAYMELRSLTSEDSAVYYCAREGIYWWGHGTTLTVS
VL: DVVVTQTPLSLPVSLGAQASISCRSSQSLVHSNGNTFLHWYLQKPGQSPKLLIYTVSNRFSGVPDRFSGSGSGTDFTLKISRVEAEDLGVYFCSQTTHVPWTFGGGTKLEIQR
notes: Murine monoclonal antibody; also called S2C6; murine CD40 donor antibody
